We go through four molecules from patent US20150191520A1 (MEDIZINISCHE UNIVERSIT T WIEN, published 2015).

A word on the Kd: it is the free concentration of one partner at which half of the binding sites on the other are occupied at equilibrium, for simple one-to-one binding.

The target of assay [1] is T1, isolated human C3b (ih-C3b) (human, UniProt P01024 749-1663; P01024 23-667, limits assumed, biotin on amino groups (Biotin-X-NHS) in flow cytometry; unlabelled in ELISA).
T1 construct: Multi-chain fragment
Put plainly: flow cytometry, CSP on transduced Bw cells (FIG. 2a). The method, then:
(§1) FIG. 2. Interaction of ILT4 and ILT5v2 with C4d, C4b, C3d, C3b and iC3b. a Flow cytometric analysis of Bw cells transduced to express ILT2, ILT4 and ILT5-antigenic variants 1 and 2 (ILT5v1 and ILT5v2). Expression of ILT-receptors was verified with specific monoclonal antibodies (left panels, grey histograms; open histograms represent reactivity of ILT MAbs with mock treated Bw cells). Interaction of Bw cells expressing ILT-molecules and mock-treated Bw cells with the indicated CSPs (20 μg/mL each) and with MHC-class I tetramers (further panels, grey histograms). b Interaction of plate-bound CSPs with recombinant human ILT4-Fc fusion protein (rh-ILT4-Fc) or control Fc-fusion protein (rh-ILT3-Fc) was analyzed in an ELISA. c Bw cells transduced to express PIR-B, the murine ortholog of ILT4, were probed with a PIR-B-specific monoclonal antibody or with human CSPs and human MHC-class I tetramers.
(§2) Flow cytometric analyses were performed via a FACSCalibur flow cytometrer (BD Biosciences, Franklin Lakes, N.J.) using 60,000 cells per sample resuspended in FACS-buffer. In experiments employing monocytes or moDCs, human IgG (Beriglobin P; CSL Behring, Vienna, Austria) was used at 20 mg/mL to block Fcγ receptors. […]
Background: A flow cytometer gives signals particle by particle.

Assay [2] has as its target T2, isolated human iC3b (ih-iC3b) (human, UniProt P01024 23-667; P01024 749-1303; P01024 1321-1663, limits assumed, biotin on amino groups (Biotin-X-NHS) in flow cytometry; unlabelled in ELISA).
T2 construct: Multi-chain fragment
The description is as above. On the procedure: as §1, §2

Assay [3] addresses T3, immunoglobulin-like transcript 4 (ILT4) (human, UniProt Q8N423 22-597).
T3 construct: Expressed on Bw5147 cells from a 2 kb retroviral insert; In the functional assays it is the native receptor on human monocytes; also called CD85d; LILRB2
The experiment in a line: flow cytometry: rh-C4d (C4Ad per the FIG. 3a legend) titrated on Bw-ILT4 cells, detected with C4d-mMAb, Langmuir 1:1 isotherm; stated to be a minimum estimate (non-equilibrium assay). On the procedure:
FIG. 3. Classical receptor-ligand interaction between C4d and ILT4. a Bw-ILT4 cells or control Bw cells (Bw-mock) were incubated with different concentrations of C4Ad and cell-bound C4Ad was measured by flow cytometry using C4d-mMAb for detection. Data obtained for C4Ad are representative for those using C4Bd, data not shown. Mean and standard deviation of triplicate measurements are shown. b Dissociation constant (Kd) of the C4d-ILT4 interaction assessed via Langmuir binding isotherm equation for single class 1:1 binding equilibrium based on data shown in FIG. 3a.
Flow cytometric analyses were performed via a FACSCalibur flow cytometrer (BD Biosciences, Franklin Lakes, N.J.) using 60,000 cells per sample resuspended in FACS-buffer. In experiments employing monocytes or moDCs, human IgG (Beriglobin P; CSL Behring, Vienna, Austria) was used at 20 mg/mL to block Fcγ receptors. For fluorescence-activated cell sorting (FACS), Bw cells expressing a retroviral cDNA expression library generated from moDC¹⁶ were incubated with biotinylated rh-C4Ad or rh-C4Bd (20m/mL each) in FACS-buffer for 30 minutes on ice followed by two washing steps and subsequent detection of bound biotinylated C4d molecules through incubation with SA-PE. FACS was performed using a FACSDiva (BD Biosciences).

Assay [4] deals with T3, immunoglobulin-like transcript 4 (ILT4). The experiment in a line: flow cytometry, biotinylated C4d (20 µg/mL) on Bw cells expressing ILT4. The text has this:
FIG. 1. Identification of ILT4 as cellular receptor for C4d. a Flow cytometric analyses showing the interaction of biotinylated recombinant human C4d (20m/mL) of both isoforms, rh-C4Ad and rh-C4Bd, with monocytes and monocyte-derived dendritic cells (moDC; grey histograms). Open histograms represent the reactivity of the secondary reagent with these cells. SA-PE: streptavidin-R-PE. b C4d-reactive cells were enriched from a Bw cell pool expressing a cDNA library derived from human moDC by multiple rounds of FACS. Data obtained for rh-C4Bd are representative for those obtained using rh-C4Ad (data not shown). Sorting gates are shown. c Single cell clones derived from the C4d reactive Bw cell pool were probed with rh-C4Ad- and rh-C4Bd. MFI: mean fluorescence intensity. d PCR-amplification of the retroviral inserts of the C4d-b(C4Bd) binding clones 1.5 and 3.7. e Bw cells expressing a 2 kb retroviral insert encoding immunoglobulin-like transcript 4 (ILT4) were probed with biotinylated rh-C4Ad, rh-C4Bd and C4d isolated from human plasma (ih-C4d) each at 20m/mL or ILT4-specific mMAb (grey histograms). Open histograms represent reactivity of C4d molecules and ILT4 mMAb with control Bw-cells. f Monocytes and moDC were analyzed for ILT4 expression (grey histograms, ILT4-mMAb; open histograms, isotype control). […]

Assay [5] addresses T1, isolated human C3b (ih-C3b). The experiment in a line: flow cytometry, CSP on transduced Bw cells (FIG. 5a). On the procedure: (§3) FIG. 5. Flow cytometric analysis of the interaction of C4d, C3d, C4b, C3b and iC3b and human MHC class I tetramers with Bw cells transduced to express a ILT1 transcript variants 1 and 2 (ILT1v1 and ILT1v2), ILT3 and ILT7, b previously established complement receptors CD21, CD46 and CRIg, and c PIR-A transcript variant 1 (PIR-Avl), murine ortholog of ILT1. a-c left panels: Expression of transduced receptors was assessed using specific antibodies (grey histograms); open histograms represent reactivity of these antibodies with control Bw cells. d Plate-bound CSP were probed with a recombinant protein representing the human CD35 extracellular domain (rh-sCD35) via ELISA. BSA was used as a plate-bound ligand control; white control bars represent no rh-sCD35 added to the assay.
(§4) Flow cytometric analyses were performed via a FACSCalibur flow cytometrer (BD Biosciences, Franklin Lakes, N.J.) using 60,000 cells per sample resuspended in FACS-buffer. […] For fluorescence-activated cell sorting (FACS), Bw cells expressing a retroviral cDNA expression library generated from moDC¹⁶ were incubated with biotinylated rh-C4Ad or rh-C4Bd (20m/mL each) in FACS-buffer for 30 minutes on ice followed by two washing steps and subsequent detection of bound biotinylated C4d molecules through incubation with SA-PE. […]

Assay [6] deals with T2, isolated human iC3b (ih-iC3b). The description is as above. On the procedure:
as §3, §4

T3 sequence (Q8N423 other isoform, or with tags, fused parts or gaps limits assumed): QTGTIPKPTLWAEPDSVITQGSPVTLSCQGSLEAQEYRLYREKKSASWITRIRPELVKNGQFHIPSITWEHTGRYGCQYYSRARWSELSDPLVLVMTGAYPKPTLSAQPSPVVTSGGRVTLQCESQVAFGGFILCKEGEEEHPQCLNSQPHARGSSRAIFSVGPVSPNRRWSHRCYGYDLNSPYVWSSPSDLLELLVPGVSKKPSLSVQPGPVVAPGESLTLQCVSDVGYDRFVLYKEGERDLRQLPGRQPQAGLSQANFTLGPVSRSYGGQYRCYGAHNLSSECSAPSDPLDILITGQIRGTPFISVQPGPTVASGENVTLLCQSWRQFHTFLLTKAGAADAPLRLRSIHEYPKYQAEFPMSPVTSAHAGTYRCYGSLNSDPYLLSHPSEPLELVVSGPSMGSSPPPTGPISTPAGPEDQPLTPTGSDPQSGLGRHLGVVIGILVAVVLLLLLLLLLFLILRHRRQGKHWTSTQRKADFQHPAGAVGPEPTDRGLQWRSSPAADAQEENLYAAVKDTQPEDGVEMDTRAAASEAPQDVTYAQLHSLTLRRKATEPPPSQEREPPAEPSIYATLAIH

B1: ILT2 (receptor, human, UniProt Q8NHL6 24-650, looked up)
chain: GHLPKPTLWAEPGSVITQGSPVTLRCQGGQETQEYRLYREKKTALWITRIPQELVKKGQFPIPSITWEHAGRYRCYYGSDTAGRSESSDPLELVVTGAYIKPTLSAQPSPVVNSGGNVILQCDSQVAFDGFSLCKEGEDEHPQCLNSQPHARGSSRAIFSVGPVSPSRRWWYRCYAYDSNSPYEWSLPSDLLELLVLGVSKKPSLSVQPGPIVAPEETLTLQCGSDAGYNRFVLYKDGERDFLQLAGAQPQAGLSQANFTLGPVSRSYGGQYRCYGAHNLSSEWSAPSDPLDILIAGQFYDRVSLSVQPGPTVASGENVTLLCQSQGWMQTFLLTKEGAADDPWRLRSTYQSQKYQAEFPMGPVTSAHAGTYRCYGSQSSKPYLLTHPSDPLELVVSGPSGGPSSPTTGPTSTSGPEDQPLTPTGSDPQSGLGRHLGVVIGILVAVILLLLLLLLLFLILRHRRQGKHWTSTQRKADFQHPAGAVGPEPTDRGLQWRSSPAADAQEENLYAAVKHTQPEDGVEMDTRSPHDEDPQAVTYAEVKHSRPRREMASPPSPLSGEFLDTKDRQAEEDRQMDTEAAASEAPQDVTYAQLHSLTLRREATEPPPSQEGPSPAVPSIYATLAIH
notes: whole, on cells
On to B1, for which the binding result in assay [1] and in assay [2] was “no binding (tested: 20 µg/mL)” each time.

B2: recombinant human C4d, isoform C4d-A (rh-C4Ad) (ligand)
chain: TLEIPGNSDPNMIPDGDFNSYVRVTASDPLDTLGSEGALSPGGVASLLRLPRGCGEQTMIYLAPTLAASRYLDKTEQWSTLPPETKDHAVDLIQKGYMRIQQFRKADGSYAAWLSRDSSTWLTAFVLKVLSLAQEQVGGSPEKLQETSNWLLSQQQADGSFQDPCPVLDRSMQGGLVGNDETVALTAFVTIALHHGLAVFQDEGAEPLKQRVEASISKANSFLGEKASAGLLGAHAAAITAYALTLTKAPVDLLGVAHNNLMAMAQETGDNLYWGSVTGSQSNAVSPTPAPRNPSDPMPQAPALWIETTAYALLHLLLHEGKAEMADQASAWLTRQGSFQGGFRSTQDTVIALDALSAYWIASHTTEERGLNVTLSSTGR
modifications: biotin on amino groups (Biotin-X-NHS) or, when indicated, on the thioester cysteine C1010 (prepro numbering) via Iodoacetyl-LC-biotin; unlabelled in FIG. 3a and when used as competitor
notes: also called complement split product C4Ad; rh-C4d
As to B2, in assay [3], the Kd is 630 nM.

B3: recombinant human C4d, isoform C4d-B (rh-C4Bd) (ligand)
chain: TLEIPGNSDPNMIPDGDFNSYVRVTASDPLDTLGSEGALSPGGVASLLRLPRGCGEQTMIYLAPTLAASRYLDKTEQWSTLPPETKDHAVDLIQKGYMRIQQFRKADGSYAAWLSRGSSTWLTAFVLKVLSLAQEQVGGSPEKLQETSNWLLSQQQADGSFQDLSPVIHRSMQGGLVGNDETVALTAFVTIALHHGLAVFQDEGAEPLKQRVEASISKASSFLGEKASAGLLGAHAAAITAYALTLTKAPADLRGVAHNNLMAMAQETGDNLYWGSVTGSQSNAVSPTPAPRNPSDPMPQAPALWIETTAYALLHLLLHEGKAEMADQAAAWLTRQGSFQGGFRSTQDTVIALDALSAYWIASHTTEERGLNVTLSSTGR
modifications: biotin on amino groups (Biotin-X-NHS) or, when indicated, on the thioester cysteine C1010 (prepro numbering) via Iodoacetyl-LC-biotin; unlabelled when used as competitor
notes: also called complement split product C4Bd; rh-C4d
B3: the binding result in assay [4] was “binds”.

B4: ILT7 (receptor, human, UniProt P59901 24-499, looked up)
chain: ENLLKPILWAEPGPVITWHNPVTIWCQGTLEAQGYRLDKEGNSMSRHILKTLESENKVKLSIPSMMWEHAGRYHCYYQSPAGWSEPSDPLELVVTAYSRPTLSALPSPVVTSGVNVTLRCASRLGLGRFTLIEEGDHRLSWTLNSHQHNHGKFQALFPMGPLTFSNRGTFRCYGYENNTPYVWSEPSDPLQLLVSGVSRKPSLLTLQGPVVTPGENLTLQCGSDVGYIRYTLYKEGADGLPQRPGRQPQAGLSQANFTLSPVSRSYGGQYRCYGAHNVSSEWSAPSDPLDILIAGQISDRPSLSVQPGPTVTSGEKVTLLCQSWDPMFTFLLTKEGAAHPPLRLRSMYGAHKYQAEFPMSPVTSAHAGTYRCYGSRSSNPYLLSHPSEPLELVVSGATETLNPAQKKSDSKTAPHLQDYTVENLIRMGVAGLVLLFLGILLFEAQHSQRSPPRCSQEANSRKDNAPFRVVEPWEQI
notes: whole, on cells
For B4, the binding result in assay [5] and in assay [6] was “no binding” throughout.
